Entries after “also recorded” stand apart in the source; their conditions may differ.
Experiments:
SHP2 = target: T1, SHP2 (Rattus norvegicus, UniProt P41499); test: von Frey filament test after intrathecal netrin-4 mixed with SHP inhibitor; format: in vivo; settings: inhibitor 1 mM mixed with netrin-4 40 ng/μL, 10 μL intrathecal; for change in withdrawal threshold after administration of mixture with netrin-4: 12, 24 and 48 hours; for degree of reduction in withdrawal threshold at 24 hours after administration: vs netrin-4 alone
T1 construct: SHP2 is expressed in the neurons of the dorsal horn of the spinal cord; from tissue; host or cells: spinal cord of living rats (in vivo, intrathecal administration)
T1 sequence (P41499 1-593): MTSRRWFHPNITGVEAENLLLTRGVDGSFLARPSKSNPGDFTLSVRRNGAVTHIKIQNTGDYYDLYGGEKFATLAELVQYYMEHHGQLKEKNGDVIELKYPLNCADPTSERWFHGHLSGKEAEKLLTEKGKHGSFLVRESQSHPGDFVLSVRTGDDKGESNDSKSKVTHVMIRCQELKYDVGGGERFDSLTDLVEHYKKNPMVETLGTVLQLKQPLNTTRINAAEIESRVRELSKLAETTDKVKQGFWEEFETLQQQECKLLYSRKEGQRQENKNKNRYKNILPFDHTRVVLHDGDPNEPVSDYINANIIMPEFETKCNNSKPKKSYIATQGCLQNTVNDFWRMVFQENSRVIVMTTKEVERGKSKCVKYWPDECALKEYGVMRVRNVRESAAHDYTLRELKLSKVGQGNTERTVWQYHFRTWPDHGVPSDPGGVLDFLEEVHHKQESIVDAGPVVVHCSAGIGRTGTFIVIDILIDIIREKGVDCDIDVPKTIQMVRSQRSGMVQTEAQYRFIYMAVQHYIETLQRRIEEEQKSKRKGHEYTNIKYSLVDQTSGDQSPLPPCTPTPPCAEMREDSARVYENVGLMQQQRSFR
Experimental: (§1) The von Frey filament test was used to measure the response to mechanical stimuli. Before the test, a plastic case was set onto a metallic mesh, and the pain model rat was put into the plastic case and acclimated to the environment for 5 to 10 minutes until settled. A filament (Semmes-Weinstein Von Frey Anesthesiometer, Muromachi Kikai Co., Ltd.) was applied to the center of the plantar surface of the hindpaw for 3 to 5 seconds, and the threshold for hindpaw withdrawal (g) was measured. After the measurement of the withdrawal thresholds of both the paws was completed, the animal used was identified from the ear tag and then returned to a breeding cage.
(§2) A purified netrin-4 protein (R&D) was dissolved in physiological saline to give a 40 ng/μL netrin-4 solution. […] (Calbiochem), an inhibitor of SHPs, was dissolved at a concentration of 50 mM in sterilized water and kept refrigerated until use. The solution was diluted 50-fold with physiological saline before use. PTPi4 (bis(4-trifluoromethylsulfonamidophenyl)-1,4-diisopropylben zene, Protein Tyrosine Phosphatase Inhibitor IV, Calbiochem), an inhibitor of SHP2, was dissolved at a concentration of 16.4 mM in DMSO (dimethyl sulfoxide, Sigma-Aldrich) and kept refrigerated until use. The solution was diluted to a final concentration of 1 mM with physiological saline before use.
In order to clarify whether the activation of SHP2 is required for the action of netrin-4 on the potentiation of nociceptive response, it was examined whether intrathecal administration of a SHPs inhibitor, NSC87877, or a SHP2 inhibitor, PTPi4 (bis(4-trifluoromethylsulfonamidophenyl)-1,4-diisopropylben zene, Protein Tyrosine Phosphatase Inhibitor IV), would cancel the effect of intrathecal administration of netrin-4. NSC87877 (final concentration: 1 mM) or PTPi4 (final concentration: 1 mM) was mixed with netrin-4 (final concentration: 40 ng/μL , and 10 uL of the mixture was infused from the rear end of the polyethylene tube retained in the medullary cavity. The von Frey filament test was conducted at 12, 24 and 48 hours after the administration to examine the change in withdrawal threshold.

male Wistar rat = test: von Frey filament test after intrathecal administration of netrin-4 to rats; format: in vivo
Experimental: as §1, §2
In order to clarify the function of netrin-4 in the spinal cord in an in vivo setting, the change in nociceptive response after intrathecal administration of netrin-4 was examined. First, a polyethylene tube was inserted into the medullary cavity of an 8-week-old male Wistar rat. One week after the intubation, the von Frey filament test was conducted to confirm, the absence of intubation-caused motor dysfunction. Ten microliters of a netrin-4 solution (40 ng/μL) was infused from the rear end of the tube retained in the medullary cavity. Meanwhile, the same volume of physiological saline was administered to each animal of the control group. The von Frey filament test was conducted at 12, 24 and 48 hours after the administration to examine the change in withdrawal threshold.
Ten microliters of a netrin-4 solution (40 ng/μL), a 10% netrin-4 solution (4 ng/μL) , a 1% netrin-4 solution (0.4 ng/μL) or a thermally denatured netrin-4 solution (prepared by heat treatment of a netrin-4 solution (40 ng/μL) at 100° C. for 10 minutes) was administered in the same manner as in Experiment 1, and the degree of the change in withdrawal threshold from before to 24 hours after the administration was calculated.

[1] = test system: glial cells or immune cells in the spinal cord; test: Immunostaining of Iba1, GFAP, CD3ε and CD45R in lumbar cord tissue after intrathecal netrin-4; format: in vivo, rat; settings: lumbar cord tissue 48 hours after intrathecal administration, vs physiological saline
Experimental: (§3) Rat tissue fixation was performed by perfusion under deep anesthesia with intraperitoneal pentobarbital. For the fixation, 0.1 M phosphate buffer was perfused, followed by a 4% PFA solution (a solution of 4% paraformaldehyde (Nacalai Tesque) in 0.1 M phosphate buffer). After the perfusion-fixation, the lumbar enlargement of the spinal cord was dissected, immersed in a 4% PFA solution and further fixed for 6 hours. The 4% PFA solution was replaced with a solution of 30% sucrose (Nacalai Tesque) in 0.1 M phosphate buffer before incubation with agitation at 4° C. for two consecutive days. The lumbar cord tissue was embedded in OCT compound (Sakura Finetek Japan Co., Ltd.), frozen and sliced to a thickness of 20 μm with a cryostat, and the resulting section was mounted onto a slide glass (Matsunsmi Glass Ind., Ltd.). The specimen was immersed in a 5% BSA solution (a solution of 5% BSA (bovine serum albumin, Sigma-Aldrich) in 0.1 M phosphate buffer) at room temperature for 2 hours. The 5% BSA solution was replaced with a 5% BSA solution containing a primary antibody, and the reaction was allowed to proceed at 4° C. for two consecutive days. […] After washing with 0.1 M phosphate buffer 3 times, the specimen was coverslipped with a mounting medium and then observed under a fluorescence microscope. […]

[2] = test system: neurons in the dorsal horn of the spinal cord (c-fos); test: Immunostaining of c-fos in lumbar cord tissue after intrathecal netrin-4; format: in vivo, rat; settings: lumbar cord tissue 48 hours after intrathecal administration, vs physiological saline
Experimental: as §3

Molecule: O=S(=O)(O)c1ccc2cc(N=Nc3cc(S(=O)(=O)O)c4cccnc4c3O)ccc2c1 [NSC87877]
- change in withdrawal threshold after administration of mixture with netrin-4 (SHP2): reduction in withdrawal threshold was observed in the group of administration of netrin-4 alone, but not
- degree of reduction in withdrawal threshold at 24 hours after administration (SHP2): significantly curbed

Molecule: CC(C)(c1ccc(NS(=O)(=O)C(F)(F)F)cc1)c1ccc(C(C)(C)c2ccc(NS(=O)(=O)C(F)(F)F)cc2)cc1 [PTPi4, bis(4-trifluoromethylsulfonamidophenyl)-1,4-diisopropylben zene]
- change in withdrawal threshold after administration of mixture with netrin-4 (SHP2): reduction in withdrawal threshold was observed in the group of administration of netrin-4 alone, but not
- degree of reduction in withdrawal threshold at 24 hours after administration (SHP2): significantly curbed

B1: netrin-4: purified netrin-4 protein (R&D) dissolved in physiological saline (protein, UniProt Q9HB63 19-628, looked up)
Netrin-4: GLSGVAGVSSRCEKACNPRMGNLALGRKLWADTTCGQNATELYCFYSENTDLTCRQPKCDKCNAAYPHLAHLPSAMADSSFRFPRTWWQSAEDVHREKIQLDLEAEFYFTHLIVMFKSPRPAAMVLDRSQDFGKTWKPYKYFATNCSATFGLEDDVVKKGAICTSKYSSPFPCTGGEVIFKALSPPYDTENPYSAKVQEQLKITNLRVQLLKRQSCPCQRNDLNEEPQHFTHYAIYDFIVKGSCFCNGHADQCIPVHGFRPVKAPGTFHMVHGKCMCKHNTAGSHCQHCAPLYNDRPWEAADGKTGAPNECRTCKCNGHADTCHFDVNVWEASGNRSGGVCDDCQHNTEGQYCQRCKPGFYRDLRRPFSAPDACKPCSCHPVGSAVLPANSVTFCDPSNGDCPCKPGVAGRRCDRCMVGYWGFGDYGCRPCDCAGSCDPITGDCISSHTDIDWYHEVPDFRPVHNKSEPAWEWEDAQGFSALLHSGKCECKEQTLGNAKAFCGMKYSYVLKIKILSAHDKGTHVEVNVKIKKVLKSTKLKIFRGKRTLYPESWTDRGCTCPILNPGLEYLVAGHEDIRTGKLIVNMKSFVQHWKPSLGRKVMDILKRECK
- change in withdrawal threshold (von Frey filament test) (male Wistar rat; intrathecal 10 μL of 40 ng/μL, 12, 24 and 48 hours after administration): significant reduction in the netrin-4-administered rats versus the control group at 12, 24 and 48 hours after the administration; also recorded: reduction in withdrawal threshold was observed
- degree of change in withdrawal threshold from before to 24 hours after administration (male Wistar rat; intrathecal 10 μL of 1% netrin-4 solution (0.4 ng/μL)): no significant reduction was observed
- degree of change in withdrawal threshold from before to 24 hours after administration (male Wistar rat; intrathecal 10 μL of 10% netrin-4 solution (4 ng/μL)): reduction in withdrawal threshold was observed
- cell morphology and spinal distribution of Iba1, GFAP, CD3ε and CD45R positive cells [1]: No remarkable difference
- number of c-fos-positive cells in the dorsal horn of the spinal cord [2]: increased as compared with that in the control group

B2: thermally denatured netrin-4: netrin-4 solution (40 ng/μL) heat-treated at 100° C. for 10 minutes (protein, UniProt Q9HB63 19-628, looked up)
Netrin-4: B1 Netrin-4
modifications: heat-denatured
notes: netrin-4 solution (40 ng/μL) heat-treated at 100° C. for 10 minutes
- degree of change in withdrawal threshold from before to 24 hours after administration (male Wistar rat; intrathecal 10 μL of 40 ng/μL solution heat-treated at 100° C. for 10 minutes): did not reduce the withdrawal threshold
